Reference: paper PMC7375812, “Molecular determinants of large cargo transport into the nucleus” (eLife, 2020)

Target: the molecule itself
Experiment: negative-stain electron microscopy; purified (and labelled) capsids adsorbed on glow-discharged carbon-coated grids, 2% uranyl acetate

Protein	binding result
MS2^S37P capsid (bacteriophage MS2 coat protein with S37P and T15C) (natural protein, the introduced cysteine (T15C) coupled by maleimide to Alexa Fluor 647 or to the NLS peptide Mal-…, in a share of the copies each, coat protein of bacteriophage MS2; The NLS peptide is a branch on the cysteine, not part of the chain; source: E. coli BL21 AI, purified (PEI, ammonium sulphate, tangential flow, size exclusion after labelling); copies: 60) MASNFTQFVLVDNGGCGDVTVAPSNFANGVAEWISSNPRSQAYKVTCSVRQSSAQNRKYTIKVEVPKVATQTVGGVELPVAAWRSYLNMELTIPIFATNSDCELIVKAMQGLLKDGNPIPSAIAANSGIY	binds
MS2 capsid (wild-type bacteriophage MS2 coat protein with T15C) (natural protein, the introduced cysteine (T15C) coupled by maleimide to Alexa Fluor 647 or to the NLS peptide Mal-…, in a share of the copies each, coat protein of bacteriophage MS2; The NLS peptide is a branch on the cysteine, not part of the chain; source: E. coli BL21 AI, purified (PEI, ammonium sulphate, tangential flow, size exclusion after labelling); copies: 180) MASNFTQFVLVDNGGCGDVTVAPSNFANGVAEWISSNSRSQAYKVTCSVRQSSAQNRKYTIKVEVPKVATQTVGGVELPVAAWRSYLNMELTIPIFATNSDCELIVKAMQGLLKDGNPIPSAIAANSGIY	binds
